The text below walks through data of patent US20040014636A1, “Pharmaceutical compositions comprising a modulator of adamts-1” (priority 2000, published 2004).

The subject of series [1] is ADAMTS-1 message in THP-1 cells. In words: Real time PCR of ADAMTS-1 message in THP-1 cells. The class given is cell-based, human. The conditions noted are these: PMA 160 nM, 0 to 8+1 days. Here is the method:
THP-1 cells were cultured in RPMI 1640 media supplemented with 10% FBS, penicillin-Streptomycin, sodium pyruvate, and nonessential amino acids (Sigma). PMA (Sigma) was dissolved in ethanol and diluted in the medium at a final concentration of 160 nM. LDL was equilibrated in PBS and diluted to 400 μg/mL and oxidized with 10 μM CuSO4 for 2.5 hours at 37 degrees C. The mildly oxidized LDL was equilibrated in RPMI 1640 and filter sterilized.
THP-1 cells were cultured in media containing PMA for 0, 2, 4, 8, and 8+1 days. Another set of plates were incubated with PMA for 8+1 days, with the mildly oxidized LDL also present in the last day. RNA was extracted and ADAMTS-1 message was analyzed by real time PCR.
For orientation: Quantitative PCR measures a nucleic acid by following its amplification.

Series [2] has as its system 38 amino acid peptide derived from the published cleavage site on the proteoglycan aggrecan.
In series [3] the target is versican (large proteoglycan population secreted by primary human aortic smooth muscle cells) (UniProt P13611).
In series [4] the test system is versican. Description: Digestion of proteoglycans from aortic smooth muscle cells, size exclusion chromatography. The class given is biochemical, human. As to conditions: total proteoglycan from primary aortic smooth muscle cells incubated with ADAMTS-1 before size exclusion chromatography. The procedure:
Human aortic smooth muscle cells were purchased from Clonetics (BioWhittaker) and cultured according to supplier. For preparation of total proteoglycan population (total PG), AoSMCs were seeded at 3000 cells/cm2 in SmBM2 media (4×80 cm2 flasks). 5 days later, the cells were washed with Dulbecco's PBS and BME-Diploid medium with FBS was added to the cells. 1 day later, fresh DME-Diploid medium without FBS, containing 35S-Sulfate 33 μCi/mL and 3H-Leucine 17 μCi/mL, 15 mL/bottle and incubated for 3 days. The medium was transferred and dialyzed against binding buffer containing 8M urea, 2 mM EDTA, 0.5% Triton X-100, and 20 mM Tris-HCl, pH 7.5, for 48 hours and applied to a pre-equilibrated Hi-Trap Q column. After washing with 25 mL of Elution buffer A (binding buffer+0.25 M NaCl, proteoglycan population is eluted with a linear salt gradient: 0.25-3 M NaCl in binding buffer. Total counts in each fraction were counted by liquid scintillation counting. The fractions containing PGs were pooled, dialyzed against water, lyophilized and stored at −20 degrees C. until use (‘total PG’).
Separation by size exclusion chromatography was performed using a Superdex 200 HR 10/30 from Amersham Pharmacia biotech. […] 1 mL fractions were collected and 35S measured for each fraction.
In general terms: SEC sorts molecules by how far they enter the pores of the column.

UniProt P13611, sequence (P13611 21-3396): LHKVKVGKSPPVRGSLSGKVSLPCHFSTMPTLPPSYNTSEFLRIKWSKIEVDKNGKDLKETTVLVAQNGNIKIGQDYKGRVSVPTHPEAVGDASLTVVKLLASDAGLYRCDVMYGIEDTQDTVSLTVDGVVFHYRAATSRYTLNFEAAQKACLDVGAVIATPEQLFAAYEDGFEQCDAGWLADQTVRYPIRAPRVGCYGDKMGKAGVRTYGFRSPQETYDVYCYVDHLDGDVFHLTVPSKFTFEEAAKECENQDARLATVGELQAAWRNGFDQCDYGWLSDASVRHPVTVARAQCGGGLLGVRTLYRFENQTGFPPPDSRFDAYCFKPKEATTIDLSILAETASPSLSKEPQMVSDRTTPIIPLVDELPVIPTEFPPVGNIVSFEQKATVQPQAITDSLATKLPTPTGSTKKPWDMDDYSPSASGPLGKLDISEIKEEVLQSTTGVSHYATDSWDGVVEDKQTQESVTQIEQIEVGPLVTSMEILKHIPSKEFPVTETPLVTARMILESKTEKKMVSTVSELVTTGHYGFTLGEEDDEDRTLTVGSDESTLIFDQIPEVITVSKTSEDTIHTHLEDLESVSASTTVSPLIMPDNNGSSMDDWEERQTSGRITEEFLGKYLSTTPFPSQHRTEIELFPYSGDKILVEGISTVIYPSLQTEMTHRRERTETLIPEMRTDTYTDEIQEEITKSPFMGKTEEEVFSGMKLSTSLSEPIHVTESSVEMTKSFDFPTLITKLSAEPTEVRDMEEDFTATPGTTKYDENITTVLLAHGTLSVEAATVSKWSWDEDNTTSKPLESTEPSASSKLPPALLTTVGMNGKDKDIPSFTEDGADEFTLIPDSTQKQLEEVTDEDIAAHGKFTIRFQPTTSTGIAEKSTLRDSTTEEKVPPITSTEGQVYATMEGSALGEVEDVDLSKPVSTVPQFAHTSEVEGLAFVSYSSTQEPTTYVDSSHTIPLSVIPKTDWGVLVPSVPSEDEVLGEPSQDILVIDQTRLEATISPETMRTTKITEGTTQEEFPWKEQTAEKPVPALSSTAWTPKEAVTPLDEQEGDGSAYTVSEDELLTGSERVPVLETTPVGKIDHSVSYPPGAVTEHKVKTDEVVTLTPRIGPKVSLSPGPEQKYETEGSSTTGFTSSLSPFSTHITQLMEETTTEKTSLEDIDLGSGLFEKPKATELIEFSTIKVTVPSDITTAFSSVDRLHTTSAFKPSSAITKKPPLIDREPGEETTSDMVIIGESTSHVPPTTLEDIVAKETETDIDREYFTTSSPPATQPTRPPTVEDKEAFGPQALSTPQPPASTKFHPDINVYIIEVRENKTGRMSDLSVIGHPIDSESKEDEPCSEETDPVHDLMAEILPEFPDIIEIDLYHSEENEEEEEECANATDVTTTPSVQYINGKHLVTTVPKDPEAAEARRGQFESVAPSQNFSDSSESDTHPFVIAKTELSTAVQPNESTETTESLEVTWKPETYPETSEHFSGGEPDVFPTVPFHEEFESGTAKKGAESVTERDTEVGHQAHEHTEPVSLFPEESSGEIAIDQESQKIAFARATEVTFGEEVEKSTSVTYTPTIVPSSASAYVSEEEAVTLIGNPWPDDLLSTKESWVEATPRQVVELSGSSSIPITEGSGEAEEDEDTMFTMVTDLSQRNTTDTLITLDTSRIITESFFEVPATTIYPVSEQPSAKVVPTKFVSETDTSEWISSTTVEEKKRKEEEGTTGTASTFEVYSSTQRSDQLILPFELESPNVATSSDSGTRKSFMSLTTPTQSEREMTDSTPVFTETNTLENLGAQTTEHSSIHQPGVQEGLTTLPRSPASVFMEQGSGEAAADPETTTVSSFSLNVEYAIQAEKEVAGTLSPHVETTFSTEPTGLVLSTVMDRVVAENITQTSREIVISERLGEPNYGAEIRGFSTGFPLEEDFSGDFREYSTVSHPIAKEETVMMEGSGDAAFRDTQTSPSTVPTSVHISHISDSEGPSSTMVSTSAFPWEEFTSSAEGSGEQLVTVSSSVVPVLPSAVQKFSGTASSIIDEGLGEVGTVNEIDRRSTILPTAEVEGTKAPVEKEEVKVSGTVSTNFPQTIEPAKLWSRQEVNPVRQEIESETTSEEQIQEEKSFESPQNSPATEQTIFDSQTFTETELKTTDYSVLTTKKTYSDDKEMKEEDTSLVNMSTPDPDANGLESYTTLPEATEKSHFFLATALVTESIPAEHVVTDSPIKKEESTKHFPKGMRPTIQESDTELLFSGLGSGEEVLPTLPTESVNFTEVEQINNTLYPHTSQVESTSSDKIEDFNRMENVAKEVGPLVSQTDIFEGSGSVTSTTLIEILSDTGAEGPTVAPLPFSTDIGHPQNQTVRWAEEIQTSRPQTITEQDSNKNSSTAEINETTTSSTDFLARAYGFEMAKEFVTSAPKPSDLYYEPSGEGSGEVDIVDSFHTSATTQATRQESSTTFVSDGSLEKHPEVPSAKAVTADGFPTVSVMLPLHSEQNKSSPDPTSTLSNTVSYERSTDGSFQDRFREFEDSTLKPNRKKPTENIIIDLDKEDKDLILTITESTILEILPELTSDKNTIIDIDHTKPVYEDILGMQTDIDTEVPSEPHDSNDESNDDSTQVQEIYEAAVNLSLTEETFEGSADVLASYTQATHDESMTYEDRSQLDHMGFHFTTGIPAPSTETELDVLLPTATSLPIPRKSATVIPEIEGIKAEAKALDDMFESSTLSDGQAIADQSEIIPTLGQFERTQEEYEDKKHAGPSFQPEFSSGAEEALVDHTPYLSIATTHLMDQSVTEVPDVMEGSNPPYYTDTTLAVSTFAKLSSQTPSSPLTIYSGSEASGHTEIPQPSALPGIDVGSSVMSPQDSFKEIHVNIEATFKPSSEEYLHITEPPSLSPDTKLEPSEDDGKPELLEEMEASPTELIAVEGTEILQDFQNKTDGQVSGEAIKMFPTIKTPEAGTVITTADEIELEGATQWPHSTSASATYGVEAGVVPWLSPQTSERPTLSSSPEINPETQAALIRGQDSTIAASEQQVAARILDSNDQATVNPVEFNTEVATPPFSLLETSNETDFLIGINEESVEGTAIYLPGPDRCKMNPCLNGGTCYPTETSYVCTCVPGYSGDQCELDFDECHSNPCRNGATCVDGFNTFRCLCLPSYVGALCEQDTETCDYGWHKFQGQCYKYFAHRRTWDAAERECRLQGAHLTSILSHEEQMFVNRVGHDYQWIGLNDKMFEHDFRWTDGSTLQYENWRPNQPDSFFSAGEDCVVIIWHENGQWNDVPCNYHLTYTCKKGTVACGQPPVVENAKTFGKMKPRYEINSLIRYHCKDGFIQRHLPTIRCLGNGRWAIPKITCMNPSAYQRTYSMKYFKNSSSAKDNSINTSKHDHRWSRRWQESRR

`CCCCCCCCCCCCCC(=O)O[C@@H]1[C@@H](C)[C@@]2(O)[C@@H](C=C(CO)C[C@]3(O)C(=O)C(C)=C[C@@H]23)[C@@H]2C(C)(C)[C@]12OC(C)=O` [PMA]: in series [1], the ADAMTS-1 message level result was “induced”.
Consider recombinant ADAMTS-1, for which the “cleavage of peptide substrate, HPLC analysis” value in series [2] is listed as “Cleavage of the peptide by recombinant ADAMTS-1 has been confirmed by HPLC analysis”. The “size exclusion chromatography of total proteoglycan incubated with or without ADAMTS-1” value in series [3] is “In the presence of ADAMTS-1, the size of the large proteoglycan population made up primarily of versican is reduced and the size of the peak corresponding to smaller sized proteoglycan population is increased”.

B1: ADAMTS-1: metalloproteinase (A Disintegrin-like And Metalloprotease with Thrombospondin type 1 motif), incubated with total proteoglycan (protein)
chain: FVSSHRYVETMLVADQSMAEFHGSGLKHYLLTLFSVAARLYKHPSIRNSVSLVVVKILVIHDEQKGPEVTSNAALTLRNFCNWQKQHNPPSDRDAEHYDTAILFTRQDLCGSQTCDTLGMADVGTVCDPSRSCSVIEDDGLQAAFTTAHELGHVFNMPHDDAKQCASLNGVNQDSHMMASMLSNLDHSQPWSPCSAYMITSFLDNGHGECLMDKPQNPIQLPGDLPGTSYDANRQCQFTFGEDSKHCPDAASTCSTLWCTGTSGGVLVCQTKHFPWADGTSCGEGKWCINGKCVNKTDRKHFDTPFHGSWGMWGPWGDCSRTCGGGVQYTMRECDNPVPKNGGKYCEGKRVRYRSCNLEDCPDNNGKTFREEQCEAHNEFSKASFGSGPAVEWIPKYAGVSPKDRCKLICQAKGIGYFFVLQPKVVDGTPCSPDSTSVCVQGQCVKAGCDRIIDSKKKFDKCGVCGGNGSTCKKISGSVTSAKPGYHDIITIPTGATNIEVKQRNQRGSRNNGSFLAIKAADGTYILNGDYTLSTLEQDIMYKGVVLRYSGSSAALERIRSFSPLKEPLTIQVLTVGNALRPKIKYTYFVKKKKESFNAIPTFSAWVIEEWGECSKSCELGWQRRLVECRDINGQPASECAKEVKPASTRPCADHPCPQWQLGEWSSCSKTCGKGYKKRSLKCLSHDGGVLSHESCDPLKKPKHFIDFCTMAECS
As for B1, the “cleavage of large proteoglycan population (versican)” value in series [4] was “the size of the large proteoglycan peak is diminished”.
